Two molecules from PMC8327961, “Nse5/6 inhibits the Smc5/6 ATPase and modulates DNA substrate binding” (The EMBO Journal, 2021) can be followed below.

For one series, the target named is T1, Smc5/6 core hexamer (Saccharomyces cerevisiae, UniProt Q08204+Q12749).
T1 construct: full-length Smc5, Smc6, Nse1, Nse2, Nse3, Nse4 co-expressed in E. coli Rosetta (DE3); C-terminal 3C-Twin-Strep-tag on Smc6; with Non-structural maintenance of chromosomes element 1; E3 SUMO-protein ligase MMS21; Non-structural maintenance of chromosome element 3; Non-structural maintenance of chromosome element 4
T1 sequence (Q08204 whole entry): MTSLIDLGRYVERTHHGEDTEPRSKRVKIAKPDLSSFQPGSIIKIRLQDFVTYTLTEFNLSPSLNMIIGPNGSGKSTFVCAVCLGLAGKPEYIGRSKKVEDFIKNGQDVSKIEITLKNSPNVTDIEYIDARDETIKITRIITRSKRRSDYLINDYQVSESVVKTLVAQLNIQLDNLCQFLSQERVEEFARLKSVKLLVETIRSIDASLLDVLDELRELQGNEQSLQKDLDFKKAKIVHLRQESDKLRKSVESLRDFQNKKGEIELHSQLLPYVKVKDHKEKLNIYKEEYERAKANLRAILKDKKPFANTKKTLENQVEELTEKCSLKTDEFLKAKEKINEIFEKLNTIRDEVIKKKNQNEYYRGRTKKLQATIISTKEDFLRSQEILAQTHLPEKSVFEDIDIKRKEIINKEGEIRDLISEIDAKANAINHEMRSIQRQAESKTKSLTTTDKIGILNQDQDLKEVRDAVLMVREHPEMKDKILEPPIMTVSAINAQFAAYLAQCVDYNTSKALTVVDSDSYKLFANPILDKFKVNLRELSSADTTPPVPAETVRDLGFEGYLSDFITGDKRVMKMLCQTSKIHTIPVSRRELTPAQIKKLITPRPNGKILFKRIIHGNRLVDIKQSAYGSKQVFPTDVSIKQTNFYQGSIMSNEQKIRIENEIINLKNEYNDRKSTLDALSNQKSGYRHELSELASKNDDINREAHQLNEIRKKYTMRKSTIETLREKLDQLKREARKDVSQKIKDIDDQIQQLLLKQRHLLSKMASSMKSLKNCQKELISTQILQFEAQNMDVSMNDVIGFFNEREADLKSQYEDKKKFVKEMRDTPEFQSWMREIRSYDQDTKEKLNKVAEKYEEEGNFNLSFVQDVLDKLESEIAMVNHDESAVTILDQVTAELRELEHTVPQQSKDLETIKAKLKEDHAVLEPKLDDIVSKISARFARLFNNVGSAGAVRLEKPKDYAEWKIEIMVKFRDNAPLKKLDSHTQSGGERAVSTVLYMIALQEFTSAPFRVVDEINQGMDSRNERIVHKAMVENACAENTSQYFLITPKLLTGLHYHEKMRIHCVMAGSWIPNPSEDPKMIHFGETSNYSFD
T1 sequence (Q12749 whole entry): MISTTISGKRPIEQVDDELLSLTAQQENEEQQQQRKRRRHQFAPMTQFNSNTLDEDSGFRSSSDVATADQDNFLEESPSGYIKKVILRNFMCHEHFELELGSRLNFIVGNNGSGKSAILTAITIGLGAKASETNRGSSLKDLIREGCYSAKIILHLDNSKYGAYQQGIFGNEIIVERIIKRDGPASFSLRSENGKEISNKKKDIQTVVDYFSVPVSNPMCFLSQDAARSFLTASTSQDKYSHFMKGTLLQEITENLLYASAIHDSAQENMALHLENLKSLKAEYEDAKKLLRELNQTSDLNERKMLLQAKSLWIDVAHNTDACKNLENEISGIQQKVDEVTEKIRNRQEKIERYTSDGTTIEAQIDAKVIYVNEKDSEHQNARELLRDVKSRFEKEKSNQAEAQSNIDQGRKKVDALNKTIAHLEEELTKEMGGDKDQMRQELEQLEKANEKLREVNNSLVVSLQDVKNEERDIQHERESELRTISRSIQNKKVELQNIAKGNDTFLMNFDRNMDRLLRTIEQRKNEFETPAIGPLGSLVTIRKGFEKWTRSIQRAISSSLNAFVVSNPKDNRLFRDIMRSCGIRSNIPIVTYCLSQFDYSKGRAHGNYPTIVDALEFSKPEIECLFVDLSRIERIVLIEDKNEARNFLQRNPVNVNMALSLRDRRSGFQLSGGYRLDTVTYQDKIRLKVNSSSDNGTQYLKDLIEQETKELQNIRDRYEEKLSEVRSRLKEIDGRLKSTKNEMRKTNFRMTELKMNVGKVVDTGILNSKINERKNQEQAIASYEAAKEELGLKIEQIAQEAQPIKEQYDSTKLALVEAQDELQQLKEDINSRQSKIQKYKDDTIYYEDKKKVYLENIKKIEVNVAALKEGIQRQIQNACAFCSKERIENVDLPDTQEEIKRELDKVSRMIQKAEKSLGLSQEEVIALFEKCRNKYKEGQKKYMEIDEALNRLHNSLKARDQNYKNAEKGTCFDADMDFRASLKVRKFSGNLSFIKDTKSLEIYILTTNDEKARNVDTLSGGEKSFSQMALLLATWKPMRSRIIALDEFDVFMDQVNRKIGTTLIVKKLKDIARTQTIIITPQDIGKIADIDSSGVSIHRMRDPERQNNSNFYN
T1 sequence (Q07913 whole entry partner): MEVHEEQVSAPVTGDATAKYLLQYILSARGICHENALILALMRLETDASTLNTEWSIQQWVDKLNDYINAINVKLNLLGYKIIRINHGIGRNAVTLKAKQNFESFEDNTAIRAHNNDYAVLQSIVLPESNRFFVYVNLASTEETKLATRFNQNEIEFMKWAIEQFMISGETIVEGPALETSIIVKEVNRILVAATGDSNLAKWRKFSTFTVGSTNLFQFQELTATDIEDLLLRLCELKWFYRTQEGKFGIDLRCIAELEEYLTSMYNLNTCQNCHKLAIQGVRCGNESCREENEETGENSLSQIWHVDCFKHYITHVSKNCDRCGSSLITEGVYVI
T1 sequence (P38632 whole entry partner): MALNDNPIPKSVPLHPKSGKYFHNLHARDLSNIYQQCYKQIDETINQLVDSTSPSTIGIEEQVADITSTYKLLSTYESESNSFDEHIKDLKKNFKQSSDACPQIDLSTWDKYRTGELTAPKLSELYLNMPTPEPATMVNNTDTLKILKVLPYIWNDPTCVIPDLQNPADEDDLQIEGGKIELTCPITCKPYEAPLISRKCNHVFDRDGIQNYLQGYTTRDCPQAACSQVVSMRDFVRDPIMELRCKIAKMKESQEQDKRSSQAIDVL
T1 sequence (Q05541 whole entry partner): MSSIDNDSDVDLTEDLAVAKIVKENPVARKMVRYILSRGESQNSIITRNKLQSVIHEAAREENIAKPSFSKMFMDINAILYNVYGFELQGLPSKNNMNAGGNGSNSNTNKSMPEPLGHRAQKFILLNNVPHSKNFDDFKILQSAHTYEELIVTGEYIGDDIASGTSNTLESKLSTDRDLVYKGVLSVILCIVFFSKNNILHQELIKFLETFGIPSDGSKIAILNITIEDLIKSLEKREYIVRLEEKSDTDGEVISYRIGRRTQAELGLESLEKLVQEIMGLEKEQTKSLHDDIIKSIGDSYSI
T1 sequence (P43124 whole entry partner): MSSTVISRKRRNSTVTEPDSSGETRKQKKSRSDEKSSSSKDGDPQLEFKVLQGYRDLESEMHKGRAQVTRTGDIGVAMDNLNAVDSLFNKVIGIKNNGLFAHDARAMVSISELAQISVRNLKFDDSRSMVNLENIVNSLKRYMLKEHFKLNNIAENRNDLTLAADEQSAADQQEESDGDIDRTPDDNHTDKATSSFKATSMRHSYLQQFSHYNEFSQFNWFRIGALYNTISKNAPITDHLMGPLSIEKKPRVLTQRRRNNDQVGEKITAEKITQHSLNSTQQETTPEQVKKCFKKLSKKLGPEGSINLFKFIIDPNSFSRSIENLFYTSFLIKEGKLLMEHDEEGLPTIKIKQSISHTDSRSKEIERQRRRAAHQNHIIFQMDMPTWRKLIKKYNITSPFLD
The experiment in a line: pyruvate kinase/lactate dehydrogenase coupled ATPase assay. It counts as biochemical. To be noted: Walker B mutation in both Smc5 and Smc6, residue numbers not told; ATPase buffer pH 7.5, 2 mM MgCl2; 25 °C.

The target of a further series is T2, Nse5/6 dimer (Saccharomyces cerevisiae, UniProt Q03718;P40026 1-556;1-464).
T2 sequence 1: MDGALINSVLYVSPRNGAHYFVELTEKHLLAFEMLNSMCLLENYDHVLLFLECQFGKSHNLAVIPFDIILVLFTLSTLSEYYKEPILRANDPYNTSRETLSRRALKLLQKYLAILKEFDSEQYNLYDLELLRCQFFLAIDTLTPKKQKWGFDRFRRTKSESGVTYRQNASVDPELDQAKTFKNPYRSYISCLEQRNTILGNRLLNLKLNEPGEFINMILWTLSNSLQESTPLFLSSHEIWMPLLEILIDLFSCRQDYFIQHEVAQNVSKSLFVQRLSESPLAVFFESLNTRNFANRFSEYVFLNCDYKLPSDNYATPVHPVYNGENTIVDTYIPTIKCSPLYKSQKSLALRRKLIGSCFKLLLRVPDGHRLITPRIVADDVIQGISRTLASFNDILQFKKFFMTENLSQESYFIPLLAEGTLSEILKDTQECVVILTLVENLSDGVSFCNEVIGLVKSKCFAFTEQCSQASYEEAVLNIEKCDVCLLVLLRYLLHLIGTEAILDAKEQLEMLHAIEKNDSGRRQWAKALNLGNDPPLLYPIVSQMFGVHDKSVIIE
T2 sequence 2: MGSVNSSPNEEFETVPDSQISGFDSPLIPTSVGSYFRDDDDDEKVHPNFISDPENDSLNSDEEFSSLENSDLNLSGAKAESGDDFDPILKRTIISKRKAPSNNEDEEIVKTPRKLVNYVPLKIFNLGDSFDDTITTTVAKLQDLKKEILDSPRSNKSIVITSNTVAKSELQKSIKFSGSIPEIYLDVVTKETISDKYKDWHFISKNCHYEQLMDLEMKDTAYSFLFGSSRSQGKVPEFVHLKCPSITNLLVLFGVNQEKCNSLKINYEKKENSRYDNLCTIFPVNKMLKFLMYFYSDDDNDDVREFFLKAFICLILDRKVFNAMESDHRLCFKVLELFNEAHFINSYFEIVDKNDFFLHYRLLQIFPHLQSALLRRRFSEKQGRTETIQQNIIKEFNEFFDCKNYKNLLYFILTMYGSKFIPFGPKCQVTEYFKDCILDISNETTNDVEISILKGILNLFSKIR
The experiment in a line: fluorescence anisotropy; ATPase buffer: 10 mM Hepes-KOH pH 7.5, 150 mM K-OAc, 2 mM MgCl2, 20% glycerol; anisotropy at 25 C; plasmid pulldown bound at room temperature, high-salt buffer. As to conditions: protein: recombinant; copies: 1;1; blunt.

Series [1] has as its target Smc5/6 hexamer (Smc5, Smc6, Nse1, Nse2, Nse3, Nse4) (Saccharomyces cerevisiae, UniProt Q08204;Q12749;Q07913;P38632;Q05541;P43124 1-1093;1-1114;1-336;1-267;1-303;1-402). Described as above. As to conditions: protein: recombinant; tags: C-terminal 3C-Twin-Strep on Smc6; copies: 1;1;1;1;1;1; blunt.
Series [2] concerns the target Smc5/6 octamer (hexamer plus Nse5/6) (Saccharomyces cerevisiae, UniProt Q08204;Q12749;Q07913;P38632;Q05541;P43124;Q03718;P40026 …). The description is as above. As to conditions: protein: recombinant; tags: C-terminal 3C-Twin-Strep on Smc6; reconstitution with Nse5 C-terminal AviTag-3C-Twin-Strep; copies: 1;1;1;1;1;1;1;1; blunt.

Turning to `Nc1ncnc2c1ncn2[C@@H]1O[C@H](COP(=O)(O)OP(=O)(O)OP(=O)(O)O)[C@@H](O)[C@H]1O` [ATP], the “no noticeable ATP hydrolysis” value on Smc5/6 core hexamer is “did not display noticeable ATP hydrolysis activity”.

B1: 40bpDNA (STI699/STI700) (dsDNA)
DNA 1: TTAGTTGTTCGTAGTGCTCGTCTGGCTCTGGATTACCCGC
DNA 2: GCGGGTAATCCAGAGCCAGACGAGCACTACGAACAACTAA
As a reminder, the Kd is the equilibrium constant for the complex coming apart. Regarding B1, the binding result in the series with Nse5/6 dimer is given as “no binding”. In addition, the values for the Kd in series [1] and in series [2] were around 150 nM and around 100 nM, respectively.
